Reference: US20190062395A1 (MEDICENNA THERAPEUTICS, published 2019)

Target: T1, interleukin 2 receptor beta (IL-2Rβ) (UniProt P14784 27-240, limits assumed)
T1 construct: also called CD122
T1 sequence (looked up): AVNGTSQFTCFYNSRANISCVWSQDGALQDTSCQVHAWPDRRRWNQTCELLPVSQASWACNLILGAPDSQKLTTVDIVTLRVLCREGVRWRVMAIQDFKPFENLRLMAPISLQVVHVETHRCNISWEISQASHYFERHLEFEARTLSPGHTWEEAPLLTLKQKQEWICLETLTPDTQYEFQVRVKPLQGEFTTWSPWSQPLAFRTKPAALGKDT
Experiment: method not stated; Kd column of the H9 substitution matrix; target not given

B1: H9 (IL-2 mutein having the amino acid substitutions L80F, R81D, L85V, I86V, and I92F, numbered in accordance with wild-type human IL-2 of SEQ ID NO:2) (ligand)
chain: APTSSSTKKTQLQLEHLLLDLQMILNGINNYKNPKLTRMLTFKFYMPKKATELKHLQCLEEELKPLEEVLNLAQSKNFHFDPRDVVSNINVFVLELKGSETTFMCEYADETATIVEFLNRWITFCQSIISTLT
notes: also called IL-2 superkine
B1 showed a Kd of 1.3 nM.
